# Results taken from article PMC8373123.
# Biological target: human NPC1L1 (Niemann-Pick C1-like 1), wild type, C-terminal Flag tag (human) (UniProt Q9UHC9)
# Assay: cryo-EM structure
substance,measurement,value
"human NPC1L1 (Niemann-Pick C1-like 1), wild type, C-terminal Flag tag (from UniProt Q9UHC9-2 22-1332) (natural protein)",stoichiometry N,2
